From patent publication US20180142226 come the findings set out here.

Series [1] concerns the target T1, PFPQPQQPF peptide.
T1 chain: PFPQPQQPF

For series [2], the target named is T2, PFPQPQLPY peptide.
T2 chain: PFPQPQLPY

B1: Kuma011-I463Q (protein)
chain: AAPTAYTPLDVAQAYQFPEGLDGQGQCIAIIELGGGYDEASLAQYFASLGVPAPQVVSVSVDGASNQPTGDPKGPDGEVELDIEVAGALAPGAKFAVYFAPDTTAGFLDAITTAIHDPTLKPSVVSISWSGPEDSWTSAAIAAMNRAFLDAAALGVTVLAAAGDSGSTGGEQDGLYHVHFPAASPYVLACGGTRLVASGGRIAQETVWNDGPDGGATGGGVSRIFPLPAWQEHANVPPSANPGASSGRGVPDLAGNADPATGYEVVIDGEATVQGGTSAVAPLFAALVARINQKLGKAVGYLNPTLYQLPADVFHDITEGNNDIANRAQIYQAGPGWDPCTGLGSPIGVRLLQALLPSASQPQ
In the case of B1, in series [1], the “% Improvement on PFPQPQQPF (SEQ ID NO: 68)” value worked out at 69%. Also, the “% Improvement on PFPQPQLPY (SEQ ID NO: 67)” value in series [2] was 129%.

B2: Kuma010/011 E221Q (protein)
chain: AAPTAYTPLDVAQAYQFPEGLDGQGQCIAIIQLGGGYDEASLAQYFASLGVPAPQVVSVSVDGASNQPTGDPKGPDGEVELDIEVAGALAPGAKFAVYFAPDTTAGFLDAITTAIHDPTLKPSVVSISWSGPEDSWTSAAIAAMNRAFLDAAALGVTVLAAAGDSGSTGGEQDGLYHVHFPAASPYVLACGGTRLVASGGRIAQETVWNDGPDGGATGGGVSRIFPLPAWQEHANVPPSANPGASSGRGVPDLAGNADPATGYEVVIDGEATVIGGTSAVAPLFAALVARINQKLGKAVGYLNPTLYQLPADVFHDITEGNNDIANRAQIYQAGPGWDPCTGLGSPIGVRLLQALLPSASQPQ
In the case of B2, in series [2], the “% Improvement on PFPQPQLPY (SEQ ID NO: 67)” value is given as 105%.

B3: Kuma011-E269L (protein)
chain: AAPTAYTPLDVAQAYQFPEGLDGQGQCIAIIELGGGYDEASLAQYFASLGVPAPQVVSVSVDGASNQPTGDPKGPDGEVLLDIEVAGALAPGAKFAVYFAPDTTAGFLDAITTAIHDPTLKPSVVSISWSGPEDSWTSAAIAAMNRAFLDAAALGVTVLAAAGDSGSTGGEQDGLYHVHFPAASPYVLACGGTRLVASGGRIAQETVWNDGPDGGATGGGVSRIFPLPAWQEHANVPPSANPGASSGRGVPDLAGNADPATGYEVVIDGEATVIGGTSAVAPLFAALVARINQKLGKAVGYLNPTLYQLPADVFHDITEGNNDIANRAQIYQAGPGWDPCTGLGSPIGVRLLQALLPSASQPQ
B3: in series [1], the “% Improvement on PFPQPQQPF (SEQ ID NO: 68)” value is on record as 84%. Further, the “% Improvement on PFPQPQLPY (SEQ ID NO: 67)” value in series [2] turned out to be 113%.

B4: Kuma011-V268A (protein)
chain: AAPTAYTPLDVAQAYQFPEGLDGQGQCIAIIELGGGYDEASLAQYFASLGVPAPQVVSVSVDGASNQPTGDPKGPDGEAELDIEVAGALAPGAKFAVYFAPDTTAGFLDAITTAIHDPTLKPSVVSISWSGPEDSWTSAAIAAMNRAFLDAAALGVTVLAAAGDSGSTGGEQDGLYHVHFPAASPYVLACGGTRLVASGGRIAQETVWNDGPDGGATGGGVSRIFPLPAWQEHANVPPSANPGASSGRGVPDLAGNADPATGYEVVIDGEATVIGGTSAVAPLFAALVARINQKLGKAVGYLNPTLYQLPADVFHDITEGNNDIANRAQIYQAGPGWDPCTGLGSPIGVRLLQALLPSASQPQ
With B4, the “% Improvement on PFPQPQQPF (SEQ ID NO: 68)” value in series [1] stood at 89%. Moreover, the “% Improvement on PFPQPQLPY (SEQ ID NO: 67)” value in series [2] was 107%.

B5: Kuma010/011 E221D (protein)
chain: AAPTAYTPLDVAQAYQFPEGLDGQGQCIAIIDLGGGYDEASLAQYFASLGVPAPQVVSVSVDGASNQPTGDPKGPDGEVELDIEVAGALAPGAKFAVYFAPDTTAGFLDAITTAIHDPTLKPSVVSISWSGPEDSWTSAAIAAMNRAFLDAAALGVTVLAAAGDSGSTGGEQDGLYHVHFPAASPYVLACGGTRLVASGGRIAQETVWNDGPDGGATGGGVSRIFPLPAWQEHANVPPSANPGASSGRGVPDLAGNADPATGYEVVIDGEATVIGGTSAVAPLFAALVARINQKLGKAVGYLNPTLYQLPADVFHDITEGNNDIANRAQIYQAGPGWDPCTGLGSPIGVRLLQALLPSASQPQ
In the case of B5, the “% Improvement on PFPQPQLPY (SEQ ID NO: 67)” value in series [2] was found to be 105%.

B6: Kuma011-N424K (protein)
chain: AAPTAYTPLDVAQAYQFPEGLDGQGQCIAIIELGGGYDEASLAQYFASLGVPAPQVVSVSVDGASNQPTGDPKGPDGEVELDIEVAGALAPGAKFAVYFAPDTTAGFLDAITTAIHDPTLKPSVVSISWSGPEDSWTSAAIAAMNRAFLDAAALGVTVLAAAGDSGSTGGEQDGLYHVHFPAASPYVLACGGTRLVASGGRIAQETVWNDGPDGGATGGGVSRIFPLPAWQEHAKVPPSANPGASSGRGVPDLAGNADPATGYEVVIDGEATVIGGTSAVAPLFAALVARINQKLGKAVGYLNPTLYQLPADVFHDITEGNNDIANRAQIYQAGPGWDPCTGLGSPIGVRLLQALLPSASQPQ
For B6, in series [2], the “% Improvement on PFPQPQLPY (SEQ ID NO: 67)” value worked out at 285%.

B7: Kuma011-I463R (protein)
chain: AAPTAYTPLDVAQAYQFPEGLDGQGQCIAIIELGGGYDEASLAQYFASLGVPAPQVVSVSVDGASNQPTGDPKGPDGEVELDIEVAGALAPGAKFAVYFAPDTTAGFLDAITTAIHDPTLKPSVVSISWSGPEDSWTSAAIAAMNRAFLDAAALGVTVLAAAGDSGSTGGEQDGLYHVHFPAASPYVLACGGTRLVASGGRIAQETVWNDGPDGGATGGGVSRIFPLPAWQEHANVPPSANPGASSGRGVPDLAGNADPATGYEVVIDGEATVRGGTSAVAPLFAALVARINQKLGKAVGYLNPTLYQLPADVFHDITEGNNDIANRAQIYQAGPGWDPCTGLGSPIGVRLLQALLPSASQPQ
For B7, in series [1], the “% Improvement on PFPQPQQPF (SEQ ID NO: 68)” value is reported as 110%. Further, the “% Improvement on PFPQPQLPY (SEQ ID NO: 67)” value in series [2] is on record as 29%.

B8: Kuma011-K262E (protein)
chain: AAPTAYTPLDVAQAYQFPEGLDGQGQCIAIIELGGGYDEASLAQYFASLGVPAPQVVSVSVDGASNQPTGDPEGPDGEVELDIEVAGALAPGAKFAVYFAPDTTAGFLDAITTAIHDPTLKPSVVSISWSGPEDSWTSAAIAAMNRAFLDAAALGVTVLAAAGDSGSTGGEQDGLYHVHFPAASPYVLACGGTRLVASGGRIAQETVWNDGPDGGATGGGVSRIFPLPAWQEHANVPPSANPGASSGRGVPDLAGNADPATGYEVVIDGEATVIGGTSAVAPLFAALVARINQKLGKAVGYLNPTLYQLPADVFHDITEGNNDIANRAQIYQAGPGWDPCTGLGSPIGVRLLQALLPSASQPQ
In the case of B8, the “% Improvement on PFPQPQQPF (SEQ ID NO: 68)” value in series [1] was 110%. In series [2], the “% Improvement on PFPQPQLPY (SEQ ID NO: 67)” value is listed as 109%.

B9: Kuma010/011 E221N (protein)
chain: AAPTAYTPLDVAQAYQFPEGLDGQGQCIAIINLGGGYDEASLAQYFASLGVPAPQVVSVSVDGASNQPTGDPKGPDGEVELDIEVAGALAPGAKFAVYFAPDTTAGFLDAITTAIHDPTLKPSVVSISWSGPEDSWTSAAIAAMNRAFLDAAALGVTVLAAAGDSGSTGGEQDGLYHVHFPAASPYVLACGGTRLVASGGRIAQETVWNDGPDGGATGGGVSRIFPLPAWQEHANVPPSANPGASSGRGVPDLAGNADPATGYEVVIDGEATVIGGTSAVAPLFAALVARINQKLGKAVGYLNPTLYQLPADVFHDITEGNNDIANRAQIYQAGPGWDPCTGLGSPIGVRLLQALLPSASQPQ
For B9, the “% Improvement on PFPQPQLPY (SEQ ID NO: 67)” value in series [2] was 105%.

B10: Kuma011-I463T (protein)
chain: AAPTAYTPLDVAQAYQFPEGLDGQGQCIAIIELGGGYDEASLAQYFASLGVPAPQVVSVSVDGASNQPTGDPKGPDGEVELDIEVAGALAPGAKFAVYFAPDTTAGFLDAITTAIHDPTLKPSVVSISWSGPEDSWTSAAIAAMNRAFLDAAALGVTVLAAAGDSGSTGGEQDGLYHVHFPAASPYVLACGGTRLVASGGRIAQETVWNDGPDGGATGGGVSRIFPLPAWQEHANVPPSANPGASSGRGVPDLAGNADPATGYEVVIDGEATVTGGTSAVAPLFAALVARINQKLGKAVGYLNPTLYQLPADVFHDITEGNNDIANRAQIYQAGPGWDPCTGLGSPIGVRLLQALLPSASQPQ
On to B10, for which the “% Improvement on PFPQPQQPF (SEQ ID NO: 68)” value in series [1] came to 239%. The “% Improvement on PFPQPQLPY (SEQ ID NO: 67)” value in series [2] is given as 130%.

B11: Kuma011-V268T (protein)
chain: AAPTAYTPLDVAQAYQFPEGLDGQGQCIAIIELGGGYDEASLAQYFASLGVPAPQVVSVSVDGASNQPTGDPKGPDGETELDIEVAGALAPGAKFAVYFAPDTTAGFLDAITTAIHDPTLKPSVVSISWSGPEDSWTSAAIAAMNRAFLDAAALGVTVLAAAGDSGSTGGEQDGLYHVHFPAASPYVLACGGTRLVASGGRIAQETVWNDGPDGGATGGGVSRIFPLPAWQEHANVPPSANPGASSGRGVPDLAGNADPATGYEVVIDGEATVIGGTSAVAPLFAALVARINQKLGKAVGYLNPTLYQLPADVFHDITEGNNDIANRAQIYQAGPGWDPCTGLGSPIGVRLLQALLPSASQPQ
With B11, the “% Improvement on PFPQPQQPF (SEQ ID NO: 68)” value in series [1] turned out to be 105%. Also, in series [2], the “% Improvement on PFPQPQLPY (SEQ ID NO: 67)” value stood at 127%.

B12: Kuma011-V268S (protein)
chain: AAPTAYTPLDVAQAYQFPEGLDGQGQCIAIIELGGGYDEASLAQYFASLGVPAPQVVSVSVDGASNQPTGDPKGPDGESELDIEVAGALAPGAKFAVYFAPDTTAGFLDAITTAIHDPTLKPSVVSISWSGPEDSWTSAAIAAMNRAFLDAAALGVTVLAAAGDSGSTGGEQDGLYHVHFPAASPYVLACGGTRLVASGGRIAQETVWNDGPDGGATGGGVSRIFPLPAWQEHANVPPSANPGASSGRGVPDLAGNADPATGYEVVIDGEATVIGGTSAVAPLFAALVARINQKLGKAVGYLNPTLYQLPADVFHDITEGNNDIANRAQIYQAGPGWDPCTGLGSPIGVRLLQALLPSASQPQ
In the case of B12, the “% Improvement on PFPQPQQPF (SEQ ID NO: 68)” value in series [1] is 83%. Besides, the “% Improvement on PFPQPQLPY (SEQ ID NO: 67)” value in series [2] is given as 104%.

B13: Kuma011-I463V (protein)
chain: AAPTAYTPLDVAQAYQFPEGLDGQGQCIAIIELGGGYDEASLAQYFASLGVPAPQVVSVSVDGASNQPTGDPKGPDGEVELDIEVAGALAPGAKFAVYFAPDTTAGFLDAITTAIHDPTLKPSVVSISWSGPEDSWTSAAIAAMNRAFLDAAALGVTVLAAAGDSGSTGGEQDGLYHVHFPAASPYVLACGGTRLVASGGRIAQETVWNDGPDGGATGGGVSRIFPLPAWQEHANVPPSANPGASSGRGVPDLAGNADPATGYEVVIDGEATVVGGTSAVAPLFAALVARINQKLGKAVGYLNPTLYQLPADVFHDITEGNNDIANRAQIYQAGPGWDPCTGLGSPIGVRLLQALLPSASQPQ
In the case of B13, the “% Improvement on PFPQPQQPF (SEQ ID NO: 68)” value in series [1] worked out at 141%. Further, in series [2], the “% Improvement on PFPQPQLPY (SEQ ID NO: 67)” value was 256%.

B14: Kuma010/011 E221H (protein)
chain: AAPTAYTPLDVAQAYQFPEGLDGQGQCIAIIHLGGGYDEASLAQYFASLGVPAPQVVSVSVDGASNQPTGDPKGPDGEVELDIEVAGALAPGAKFAVYFAPDTTAGFLDAITTAIHDPTLKPSVVSISWSGPEDSWTSAAIAAMNRAFLDAAALGVTVLAAAGDSGSTGGEQDGLYHVHFPAASPYVLACGGTRLVASGGRIAQETVWNDGPDGGATGGGVSRIFPLPAWQEHANVPPSANPGASSGRGVPDLAGNADPATGYEVVIDGEATVIGGTSAVAPLFAALVARINQKLGKAVGYLNPTLYQLPADVFHDITEGNNDIANRAQIYQAGPGWDPCTGLGSPIGVRLLQALLPSASQPQ
B14: in series [2], the “% Improvement on PFPQPQLPY (SEQ ID NO: 67)” value turned out to be 105%.
